In assay [1] the target is 152 patient-derived subtype B viruses obtained from pre-ART plasma. In words: cell-based or functional assay.
For the next assay, the target named is BSA (UniProt P02769). In words: single-point ELISA. For orientation: In an ELISA, binding on a coated surface is turned into a signal by an enzyme label.
Assay [2] deals with HIV-1 envelope glycoprotein (Env, gp120) of virus 7552 (HIV-1). In words: cell-based or functional assay.
Assay [3] deals with HIV-1 envelope glycoprotein (Env, gp120) of virus 92HT593 (HIV-1). In words: cell-based or functional assay.
Assay [4] addresses HIV-1 envelope glycoprotein (Env, gp120) of virus VS017 (HIV-1). In words: cell-based or functional assay.
In assay [5] the target is HIV-1 envelope glycoprotein (Env, gp120) of virus 8106 (HIV-1). In words: cell-based or functional assay.
Assay [6] addresses HIV-1 envelope glycoprotein (Env, gp120) of virus 1012 (HIV-1). In words: cell-based or functional assay.
The target in assay [7] is HIV-1 envelope glycoprotein (Env, gp120) of virus 302076 (HIV-1). In words: cell-based or functional assay.
Assay [8] concerns the target HIV-1 envelope glycoprotein (Env, gp120) of virus VS046 (HIV-1). In words: cell-based or functional assay.
Assay [9] concerns the target HIV-1 envelope glycoprotein (Env, gp120) of virus VS049 (HIV-1). In words: cell-based or functional assay.
Assay [10] addresses HIV-1 envelope glycoprotein (Env, gp120) of virus VS004 (HIV-1). In words: cell-based or functional assay.
The target in assay [11] is HIV-1 envelope glycoprotein (Env, gp120) of virus 7015 (HIV-1). In words: cell-based or functional assay.
Assay [12] addresses HIV-1 envelope glycoprotein (Env, gp120) of virus 7576 (HIV-1). In words: cell-based or functional assay.
Assay [13] concerns the target HIV-1 envelope glycoprotein (Env, gp120) of virus 92US712 (HIV-1). In words: cell-based or functional assay.
Assay [14] concerns the target HIV-1 envelope glycoprotein (Env, gp120) of virus 8318 (HIV-1). In words: cell-based or functional assay.
Assay [15] addresses HIV-1 envelope glycoprotein (Env, gp120) of virus VS026 (HIV-1). In words: cell-based or functional assay.
Assay [16] deals with HIV-1 envelope glycoprotein (Env, gp120) of virus VS042 (HIV-1). In words: cell-based or functional assay.
The target in assay [17] is HIV-1 envelope glycoprotein (Env, gp120) of virus VS039 (HIV-1). In words: cell-based or functional assay.
The target of assay [18] is HIV-1 envelope glycoprotein (Env, gp120) of virus 8117 (HIV-1). In words: cell-based or functional assay.
Assay [19] concerns the target HIV-1 envelope glycoprotein (Env, gp120) of virus 1003 (HIV-1). In words: cell-based or functional assay.
The target in assay [20] is HIV-1 envelope glycoprotein (Env, gp120) of virus 7595 (HIV-1). In words: cell-based or functional assay.
Assay [21] addresses HIV-1 envelope glycoprotein (Env, gp120) of virus 7051 (HIV-1). In words: cell-based or functional assay.
Assay [22] deals with HIV-1 envelope glycoprotein (Env, gp120) of virus 8176 (HIV-1). In words: cell-based or functional assay.
In assay [23] the target is HIV-1 envelope glycoprotein (Env, gp120) of virus 7467 (HIV-1). In words: cell-based or functional assay.
Assay [24] has as its target HIV-1 envelope glycoprotein (Env, gp120) of virus 1413 (HIV-1). In words: cell-based or functional assay.
Assay [25] concerns the target HIV-1 envelope glycoprotein (Env, gp120) of virus CHO77 (HIV-1). In words: cell-based or functional assay.
In assay [26] the target is HIV-1 envelope glycoprotein (Env, gp120) of virus VS001 (HIV-1). In words: cell-based or functional assay.
Assay [27] has as its target HIV-1 envelope glycoprotein (Env, gp120) of virus VS030 (HIV-1). In words: cell-based or functional assay.
Assay [28] addresses HIV-1 envelope glycoprotein (Env, gp120) of virus 8134 (HIV-1). In words: cell-based or functional assay.
Assay [29] addresses HIV-1 envelope glycoprotein (Env, gp120) of virus 8110 (HIV-1). In words: cell-based or functional assay.
The target of assay [30] is HIV-1 envelope glycoprotein (Env, gp120) of virus VS044 (HIV-1). In words: cell-based or functional assay.
The target in assay [31] is HIV-1 envelope glycoprotein (Env, gp120) of virus 7103 (HIV-1). In words: cell-based or functional assay.
Assay [32] deals with HIV-1 envelope glycoprotein (Env, gp120) of virus VS043 (HIV-1). In words: cell-based or functional assay.
Assay [33] has as its target HIV-1 envelope glycoprotein (Env, gp120) of virus 92US727 (HIV-1). In words: cell-based or functional assay.
The target of assay [34] is HIV-1 envelope glycoprotein (Env, gp120) of virus THRO (HIV-1). In words: cell-based or functional assay.
For assay [35], the target named is HIV-1 envelope glycoprotein (Env, gp120) of virus 92US657 (HIV-1). In words: cell-based or functional assay.
In assay [36] the target is HIV-1 envelope glycoprotein (Env, gp120) of virus 1489 (HIV-1). In words: cell-based or functional assay.
Assay [37] addresses HIV-1 envelope glycoprotein (Env, gp120) of virus REJO (HIV-1). In words: cell-based or functional assay.
The target in assay [38] is HIV-1 envelope glycoprotein (Env, gp120) of virus 8320 (HIV-1). In words: cell-based or functional assay.
Assay [39] concerns the target HIV-1 envelope glycoprotein (Env, gp120) of virus 7141 (HIV-1). In words: cell-based or functional assay.
In assay [40] the target is Env from subtype B plasma isolates (panel of 142 HIV-1 pseudotyped viruses). In words: cell-based or functional assay.

Changes are numbered by the printed parent chain.

B1: 1.52.90-1 (antibody, V domains shown)
VH: QVQLLQSGAAVTKPGASVRVSCEASGYNIRDYFIHWWRQAPGQGLQWVGWINPKTGQPNNPRQFQGRVSLTRHASFDFDTFSFYMDLKALRSDDTAVYFCARQRSDYWDFDVWGSGTQVTVSS
VL: DIQMTQSPSSLSASVGDRATITCQANGYLNWYQQRRGKAPKLLIYDGSKLERGVPSRFSGSRWGQEYNLTISSLQPEDIATYFCQVYEFFGPGTRLDLKR
Take B1: in assay [1], the Breadth (% viruses neutralized with an IC95 ≤ 50 µg/mL) was 78%, the Geomean IC95 (neutralization) was determined as 4.56 µg/mL and the Median IC95 (neutralization) came to 4.42 µg/mL.

B2: 1.36.35-1 (antibody, human IgG1, kappa, V domains shown)
VH: QVQLVQSGAEVKKPGASVRVSCKASGYNIRDYFMHWWRQAPGQGLQWVGWINPKTGQPNNPRQFQGRVTMTRHASWDFDTFSAYMDLSRLRSDDTATYFCARQRTDYWDFDVWGQGTMVTVSS
VL: B1 VL with A19V, R35K, R36P, K49N, R52T, N68T, F90V, R95N, L98I
Molecule B2 had an ELISA (A450) with BSA of 0.06 A450.

B3: Antibody 1.1.104-1 (antibody, human IgG1, kappa, V domains shown)
VH: B1 VH with F76W
VL: B1 VL with R18T, S61R, N68T, S72N, S73N
Take B3: the Virus Neutralization Potency in [2] was over 80 µg/mL; in assay [3] it was 0.28 µg/mL; in assay [4] it was 2.33 µg/mL; in assay [5], 2.8 µg/mL; in assay [6], 2.87 µg/mL; in assay [7], 0.1 µg/mL. In addition, the Virus Neutralization Potency in [8] is 0.03 µg/mL; in [9] it was over 100 µg/mL; in assay [10], 4.8 µg/mL; in [11], 0.67 µg/mL; in assay [12], 1.1 µg/mL; in assay [13], 0.04 µg/mL. Also, the Virus Neutralization Potency in assay [14] was 0.32 µg/mL; in assay [15] it was 0.19 µg/mL; in [16] it was 2.33 µg/mL; in [17] it was 0.1 µg/mL; in assay [18], 1.22 µg/mL; in assay [19], 1.44 µg/mL. The Virus Neutralization Potency in [20] was 8.47 µg/mL; in assay [21] it was 1.32 µg/mL; in [22], 0.16 µg/mL; in [23], 0.06 µg/mL; in assay [24] it was 4.34 µg/mL; in assay [25], 0.03 µg/mL. Moreover, the Virus Neutralization Potency worked out at 0.34 µg/mL in assay [26]; 7.9 µg/mL in assay [27]; 6.07 µg/mL in [28]; 4.19 µg/mL in assay [29]; 0.28 µg/mL in [30]; 1.82 µg/mL in [31]. The Virus Neutralization Potency in [32] is 1.49 µg/mL; in assay [33], 10.6 µg/mL; in assay [34], 4.27 µg/mL; in [35] it was 0.36 µg/mL; in assay [36], 0.28 µg/mL; in [37], 0.02 µg/mL. The Virus Neutralization Potency in assay [38] turned out to be 4.34 µg/mL; in assay [39], 6.57 µg/mL.

B4: 1.32.35-1 (antibody, human IgG1, kappa, V domains shown)
VH: B1 VH with L5V, A10E, F76W, S105T
VL: B1 VL with A19V, R35K, R36P, K49N, R52T, N68T, F90V, R95N, L98I
As to B4, the ELISA (A450) with BSA was 0.06 A450.

B5: 1.35.35-1 (antibody, human IgG1, kappa, V domains shown)
VH: B2 VH with A83F
VL: B1 VL with A19V, R35K, R36P, K49N, R52T, N68T, F90V, R95N, L98I
In the assay with BSA, B5 displayed an ELISA (A450) of 0.06 A450.

B6: 1.34.35-1 (antibody, human IgG1, kappa, V domains shown)
VH: B1 VH with L5V, A10E, T12K, E23K, S69T, F76W, S105T
VL: B1 VL with A19V, R35K, R36P, K49N, R52T, N68T, F90V, R95N, L98I
As to B6, the ELISA (A450) with BSA came out at 0.06 A450.

B7: 1.33.35-1 (antibody, human IgG1, kappa, V domains shown)
VH: B1 VH with L5V, A10E, T12K, E23K, S69T, F76W, V97T
VL: B1 VL with A19V, R35K, R36P, K49N, R52T, N68T, F90V, R95N, L98I
With B7, in the assay with BSA, the ELISA (A450) turned out to be 0.07 A450.

B8: Antibody A-1 (antibody, human IgG1, kappa)
heavy: QVQLLQSGAAVTKPGASVRVSCEASGYNIRDYFIHWWRQAPGQGLQWVGWINPKTGQPNNPRQFQGRVSLTRHASWDFDTFSFYMDLKALRSDDTAVYFCARQRSDYWDFDVWGSGTQVTVSSASTKGPSVFPLAPSSKSTSGGTAALGCLVKDYFPEPVTVSWNSGALTSGVHTFPAVLQSSGLYSLSSVVTVPSSSLGTQTYICNVNHKPSNTKVDKKVEPKSCDKTHTCPPCPAPELLAGPDVFLFPPKPKDTLMISRTPEVTCVVVDVSHEDPEVKFNWYVDGVEVHNAKTKPREEQYNSTYRVVSVLTVLHQDWLNGKEYKCKVSNKALPLPEEKTISKAKGQPREPQVYTLPPSREEMTKNQVSLTCLVKGFYPSDIAVEWESNGQPENNYKTTPPVLDSDGSFFLYSKLTVDKSRWQQGNVFSCSVLHEALHSHYTQKSLSLSPGK
light: DIQMTQSPSSLSASVGDTVTITCQANGYLNWYQQRRGKAPKLLIYDGSKLERGVPSRFSGRRWGQEYNLTINNLQPEDIATYFCQVYEFVVPGTRLDLKRTVAAPSVFIFPPSDEQLKSGTASVVCLLNNFYPREAKVQWKVDNALQSGNSQESVTEQDSKDSTYSLSSTLTLSKADYEKHKVYACEVTHQGLSSPVTKSFNRGEC
Turning to B8, in [40], the Median IC95 (neutralization) is 1.09 µg/mL.

The record behind these values is patent US20220089698A1.
